Laboratory results published in patent US20250026813A1 (published 2025).

B1: IMPI-006 (antibody, V domains shown)
VH: QLQLQESGPGLVKPSETLSLTCTVSGGSISNSNYYWGWIRQPPGKGLEWIGSIYYSGRTYYNPSLKSRVTISVDTSKNQFSLKLSSVTAADTAVYYCARMGLLWFGEFYGMDVWGQGTTVTVSS
VL: DIQMTQSPSSLSASVGDRVTITCRASQGISSWLAWYQQKPEKAPKSLIYDASSLQRGVPSRFSGSGSGTDFTLTISSLQPEDFASYYCQQYNSYPLTFGGGTRVEIK
B2: IMPI-005 (antibody, V domains shown)
VH: EVQLVESGGGLIQPGGSLRLSCAASGFTVSSNYMNWVRQAPGKGLEWVSVIYSGGSTYYADSVKGRFTISRDNSKNTLFLQMNSLRAEDSAVYYCARDLGPYGVDVWGQGTTVTVSS
VL: DIQLTQSPSFLSASVGDRVTITCWASQGISSYLAWYQQKPGKAPKLLIYAASTLQSGVPSRFSGSGSGTEFTLTISSLQPEDFATYYCQELNSYPLTFGQGTRLEIK
B3: YANG-1119 (antibody, V domains shown)
VH: EVQLVESGGGLVKPGGSLRLSCAASGFTFSSYSMNWVRQAPGKGLEWVSSISTGSSYIFYADSVKGRFTISRDNAKNSLYLQMNSLRAEDTAVYYCAKTGDLPFFDYWGQGTLVTVSS
VL: QSALTQPASVSGSPGQSITISCTGTSSDVGRYNYVSWYQQHPGKAPKLMIYEVSNRPSGVSNRFSGSKSGNTASLTISGLQAEDEADYYCSSYTSSSTMVFGGGTKLTVL
B4: YANG-1116 (antibody, V domains shown)
VH: EVQLVESGGGLVKPGGSLRLSCEASGFNFRSYALNWVRQAPGKGLEWVSSISTGSSYIFYADSVKGRFTISRDNAKNSLSLQMNSLRAEDTAVYYCAKTGDLPFFDYWGQGTLVTVSS
VL: QSALTQPASVSGSPGQSITISCTGTSSDVGRYNYVSWYQQHPGKAPKLMIYEVSNRPSGVSNRFSGSKSGNTASLTISGLQAEDEADYYCISYTSSSTMVFGGGTKLTVL
B5: YANG-1114 (antibody, V domains shown)
VH: EVHLVESVGGLVKPGGSLRLSCAASGFTFSSYSMNWVRQAPGKGLEWVSSISTGSSYIFYADSVKGRFTISRDNAKNSLYLQMNSLRAEDTAVYYCAKTGDLPFFDYWGQGTLVTVSS
VL: QSALTQPASVSGSPGQSITISCTGTSSDVGRYNYVSWYQQHPGKAPKLMIYEVSNRPSGVSNRFSGSKSGNTASLTISGLQAEDEADYYCSSYTSSSTMVFGGGTKLTVL
B6: YANG-1117 (antibody, V domains shown)
VH: EVQLVESGGGLVKPGGSLRLSCAASGFTFSSYSVNWVRQAPGKGLEWVSSISTGSSYIFYADSVKGRFTISRDNAKNSLYLQMNSLRAEDTAVYYCVKTGDLPFFDYWGQGTLVTVSS
VL: QSALTQPASVSGSPGQSITISCTGTRSDVGRYNYVSWYQQHPGKAPKLMIYEVTNRPSGVSNRFSGSKSGNTASLTISGLQAEDEADYYCSSYTNNSTMVFGGGTKLTVL
B7: YANG-1118 (antibody, V domains shown)
VH: EVQLVESGGGLVKPGGSLRLSCAASGFTFSSYALNWVRQAPGKGLEWVSSISTGSSYIFYADSVKGRFTISRDNAKHSLSLQMNSLRAEDTAVYYCAKTGDLPFFDYWGQGTLVTVSS
VL: QSALTQPASVSGSPGQSITISCTGTSSDVGRYNYVSWYQQHPGKAPKLMIYEVSNRPSGVSNRFSGSKSGNTASLTISGLQAEDEADYYCISYTSSSTMVFGGGTKLTVL
B8: YANG-1115 (antibody, V domains shown)
VH: EVQLVESGGGLVKPGGSLRLSCAASGFTFSSYSMNWVRQAPGKGLEWVSSISTGSSYIFYADSVKGRFTISRDNAKNSLYLQMNSLRAEDTAVYYCAKTGDLPFFDYWGQGTLVTVSS
VL: QSALTQPASVSGSPGQSITISCTGTSSDVGRYNYVSWYQQHPGKAPKLMIYEVSNRPSGVSNRFSGSKSGNTASLTISGLQAEDEADYYCSSYTSSSTMVFGGGTKLSVL
B9: YANG-1113 (antibody, V domains shown)
VH: EVQLVESGGGLVKPGGSLRLSCAASGFTFSSYSMNWVRQAPGKGLEWVSSISTGSSYIFYADSVKGRFTMSRDNAKNSLYLQMNSLRAEDTAVYYCAKTGDLPFFDYWGQGTPVTVSS
VL: QSALTQPASVSGSPGQSITISCTGTSSDVGRYNYVSWYQQHPGKAPKLMIYEVSNRPSGVSNRFSGSKSGNTASLTISGLQAEDEADYYCSSYTSSSTMVFGGGTKLTVL
B10: IMPI-055 (antibody, V domains shown)
VH: QVQLVQSGAEVKKPGASVKVSCKASGYTFTSYDINWVRQATGQGLEWMGWMNPNSGNTGYAQKFQGRVTMTRDTSINTAYMELSSLRSEDTAVYFCARGGRYCSDVTCYSGEPFDYWGQGTLVTVSS
VL: EIMLTQSPDFQSVTPKEKVTITCRASQSIGSSLHWYQQKPDQSPKLLIKFASQSISGVPSRFSGSGSGTDFTLTINSLEAEDAAAYYCHQSSSLPHTFGPGTKVEIK
B11: IMPI-059 (antibody, V domains shown)
VH: EVQLVESGGGLIQPGGSLRLSCAASGFTVSSIYMSWVRQAPGKGLEWVSIIYSRGSTDYADSVKGRFTISRDISKNTLYLQMNSLRAEDTAVYYCARDGTMVRGVHAFDIWGQGTMVTVSS
VL: DIQMTQSPPSLSASIGDRVTITCQASQDISNYLNWYQQKPGKAPKLLIYDASNLETGVPSRFSGSGSGTDFTLTISNLQPEDIVTYYCQQYDNLPSSFGQGTKLEIK
B12: IMPI-029 (antibody, V domains shown)
VH: EVQLVESGGGLIQPGGSLRLSCAASGVTVSSNYMNWVRQAPGKGLEWVSVIYSGGSTYYADSVKGRFTISRDNSKNTLFLQMNSLRAEDSAVYYCARDLGPYGVDVWGQGTTVTVSS
VL: DIQLTQSPSFLSASVGDRVTITCWASQGISSYLAWYQQKPGKAPKLLIYAASTLQSGVPSRFSGSGSGTEFTLTISSLQPEDFATYYCQELNSYPLTFGQGTRLEIK
B13: IMPI-037 (antibody, V domains shown)
VH: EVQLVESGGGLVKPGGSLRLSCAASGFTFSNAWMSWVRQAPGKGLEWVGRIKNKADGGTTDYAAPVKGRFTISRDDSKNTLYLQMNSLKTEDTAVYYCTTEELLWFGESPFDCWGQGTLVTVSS
VL: DIQLTQSPSFLSASVGDRVTITCWASQGINSYLAWYQQKPGKAPKLLIYAASTLQSGVPSRFSGSGSGTEFTLTISSLQPEDFTTYYCQQFNDYPRTFGPGTKVEIK
B14: IMPI-017 (antibody, V domains shown)
VH: EVQLVESGGGLIQPGGSLRLSCAAAGLTVSSNYMNWVRQVPGKGLEWVSVIYSGGSTYYADSVKGRFTISRDNSKNTLYLQMNSLRAEDTAVYYCARDLGTLGMDVWGQGTTVTVSS
VL: DIQLTQSPSFLSASVGDRVTITCWASQGISTYLAWYQQKPGKAPKLLIYAASTLQSGVPSRFSGSGSGTEFTLTISSLQPEDFATYYCQQLNSYLPTFGQGTKVEIK
B15: IMPI-047 (antibody, V domains shown)
VH: EVQLVESGGGLIQPGGSLRLSCAASGFTVSSNYMNWVRQAPGKGLEWVSVIYSGGSTYYADSVKGRFTISRDNSKNTLYLQMNSLRTEDTAVYYCARDLVAYGMDVWGQGTTVTVSS
VL: DIQLTQSPSFLSASVGDRVTITCWASQGISSYLAWYQQKPGKAPKVLIYAASTLQSGVPSRFSGSGSGTEFTLTISSLQPEDFATYYCQLLNSNPLTFGGGTKVEIK
B16: IMPI-052 (antibody, V domains shown)
VH: EVQLVESGGGLIQPGGSLRLSCAASGVTVSSNYMNWVRQAPGKGLEGVSVIYSGGTTYYADSVKGRFTISRDNSKNTLYLQMNSLRAEDTAVYYCARDTVVYGMDVWGQGTTVTVSS
VL: DIQLTQSPSFLSASVGDRVTITCWASQGISSYLAWYQQKPGKAPKLLIYTASTLQSGVPSRFSGSGSGTEFTLTISSLQPEDFATYYCQQLNSYPLTFGGGTKVEIK
B17: IMPI-005 (antibody, V domains shown)
VH: EVQLVESGGGLIQPGGSLRLSCAASGFTVSSNYMNWVRQAPGKGLEWVSVIYSGGSTYYADSVKGRFTISRDNSKNTLFLQMNSLRAEDSAVYYCARDLGPYGVDVWGQGTTVTVSS
VL: DIQLTQSPSFLSASVGDRVTITCWASQGISSYLAWYQQKPGKAPKLLIYAASTLQSGVPSRFSGSGSGTEFTLTISSLQPEDFATYYCQELNSYPLTFGQGTRLEIK
B18: IMPI-002 (antibody, V domains shown)
VH: EVQLVESGGGLIQPGGSLRLSCAASGVTVSSNYMSWVRQAPGKGLEGVSVIYSGGSTYYADSVKGRFTISRDNSKNTLYLQMNSLRAEDTAVYYCARDTVVYGMDVWGQGTTVTVSS
VL: DIQLTQSPSFLSASVGDRVTITCWASQGISSYLAWYQQKPGKAPKLLIYAASTLQSGVPSRFSGSGSGTEFTLTISSLQPEDFATYYCQQLNSYPLTFGGGTKVEIK
B19: IMPI-021 (antibody, V domains shown)
VH: EVQLVESGGGLIQPGGSLRLSCAASGVTVSSNYMSWVRQAPGKGLEWVSVIYSGGSTFYADSVKGRFTISRDNSKNTLYLQMNSLRAEDTAVYYCARDLSYYGMDVWGQGTTVTVSS
VL: DIQLTQSPSFLSASVGDRVTITCWASQGISSYLAWYQQKPGKAPKLLIYAASTLQSGVPSKFSGSGSGTEFTLTISSLQPEDFATYYCQQLNSYPCSFGQGTKLEIK
B20: IMPI-056 (antibody, V domains shown)
VH: EVQLVESGGGLIQPGGSLRLSCAASGLTVSSNYMNWVRQAPGKKLEWVSVIYSGGSTFYADSVRGRFTISRDNSKNTLFLQMNSLRAEDSAVYYCARDLGPYGVDVWGQGTTVTVSS
VL: DIQLTQSPSFLSASVGDRVTITCWASQGISSYLAWYQQKPGKAPKLLIYAASTLQSGVPSRFSGSGSGTEFTLTISSLQPEDFATYYCQQLNSYPLTFGQGTRLEIK
B21: IMPI-054 (antibody, V domains shown)
VH: EVQLVESGGGLIQPGGSLRLSCAASGLTVSSNYMSWVRQAPGKGLEWVSIIYSGGSTYYADSVKGRFTISRDNSKNTLYLQMNSLRAEDTAVYYCARLGGYYYYGMDVWGQGTTVTVSS
VL: DIQMTQSPSSLSASVGERVTITCQASQDIRNYLNWYQKKPGKAPKLLIYDSSNLETGVPSRFSGSGSGTDFTFTISSLQPEDIATYYCQQYDNLPITFGQGTRLEIK
B22: IMPI-042 (antibody, V domains shown)
VH: EVQLVESGGGLIQPGGSLRLSCAASGLTVSSNYMSWVRQAPGKGLEWVSIIYSGGSTYYADSVKGRFTISRDNSKNTLYLQMNSLRAEDTAVYYCARLGGYYYYGMDVWGQGTTVTVSS
VL: DIQMTQSPSSLSASVGERVTITCQASQDIRNYLNWYQKKPGKAPKLLIYDSSNLETGVPSRFSGGGSGTDFTFTISSLQPEDIATYYCQQYDNLPITFGQGTRLEIK

molecular target: SARS-CoV-2 spike protein receptor binding domain (RBD) (SARS-CoV-2, UniProt P0DTC2 319-541); experiment: not given

Binder | Kd
B1 | 191 nM
B2 | 24.9 nM

molecular target: T1, RBD domain of the spike protein of SARS-CoV-2 virus (Acro Biosystems SPD-C52H3) (SARS-CoV-2, UniProt P0DTC2 319-537); experiment: Affinity (SPR) by Octet; antigen not named, taken from the epitope column
T1 construct: domain: RBD domain

Binder | Kd
B3 | < 0.1 nM
B4 | < 0.1 nM
B5 | < 0.1 nM
B6 | < 0.1 nM
B7 | < 0.1 nM
B8 | < 0.1 nM
B9 | < 0.1 nM

molecular target: RBD domain of the spike protein of SARS-CoV-2 virus (Acro Biosystems SPD-C52H3) (SARS-CoV-2, UniProt P0DTC2 319-537); experiment: not given

Binder | IC50
B10 | 3.39 nM
B11 | 2.02 nM
B12 | 1.26 nM
B13 | 7.76 nM
B14 | 0.832 nM
B15 | 3.36 nM
B16 | 4.85 nM
B17 | 3.18 nM
B18 | 8.15 nM
B19 | 4.87 nM
B20 | 1.93 nM
B21 | 2.28 nM
B22 | 5.54 nM
